The test has as its target BCAS1-SV1 (novel splice variant of BCAS1), full length, Gal4 fusion for yeast two-hybrid (human).

BCAS1-SV1 (novel splice variant of BCAS1), full length, Gal4 fusion for yeast two-hybrid (human), sequence (O75363 whole entry, change not shown, the tested form may be a part, canonical isoform): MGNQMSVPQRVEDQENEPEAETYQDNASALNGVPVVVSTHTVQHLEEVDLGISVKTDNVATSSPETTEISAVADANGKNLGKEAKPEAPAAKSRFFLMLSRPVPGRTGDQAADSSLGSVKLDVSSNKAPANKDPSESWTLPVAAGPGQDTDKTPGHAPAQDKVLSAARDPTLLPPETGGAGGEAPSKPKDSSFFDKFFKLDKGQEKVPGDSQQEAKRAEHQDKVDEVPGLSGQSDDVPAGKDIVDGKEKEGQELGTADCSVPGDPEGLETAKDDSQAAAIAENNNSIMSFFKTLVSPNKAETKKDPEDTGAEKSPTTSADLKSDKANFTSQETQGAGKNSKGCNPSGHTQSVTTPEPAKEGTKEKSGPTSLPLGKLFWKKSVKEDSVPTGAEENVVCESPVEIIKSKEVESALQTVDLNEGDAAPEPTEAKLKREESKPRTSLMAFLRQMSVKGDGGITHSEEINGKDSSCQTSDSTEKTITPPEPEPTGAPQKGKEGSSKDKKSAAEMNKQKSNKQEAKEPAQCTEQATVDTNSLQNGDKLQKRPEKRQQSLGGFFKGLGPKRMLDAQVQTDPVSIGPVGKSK

For the substance “β-arrestin 2 (ARRB2), full length, Gal4 fusion for yeast two-hybrid (from UniProt P32121-1 1-409) (natural protein)”, the decrease of migration of GBM8401 cells (scratch wound assay) by maackiain (MK), dose series up to 1 μM; MK is said to disrupt the pair is 67% and the decrease of migration of M059K cells (scratch wound assay) by maackiain (MK), dose series up to 1 μM; MK is said to disrupt the pair stood at 70%.
